Laboratory results as given in the supplement of paper PMC10201428.
± gives the standard deviation of the averaged measurements.

B1: library; a variant is named by its letters at N, in order (parent)
chain: AATGTTGTTGATGCAACCATAAAGTGATATTTAATAATTATTTATAATCAGCAACTTAACCACAAAACAACCATATATTGATATNTCACAAAACAACCATAANTTGATATTTTTGTGAATCGAGTATTTCAGCAAAACTACTGCAGTAAGAA

How the values were obtained:
[1] = variants of: B1; experiment: relative integration efficiency (T-LR orientation) vs wild-type transposon end (log2 (normalized fold change)); transposon end mutated: left end; higher = more efficient transposition; settings: with VchCAST RNA-guided transposition machinery (E. coli BL21(DE3) host, lacZ target)
In short: (§1)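 Relative integration efficiency is a fold change of output over input barcode abundance, normalised to reference barcodes and log-transformed. Input plasmids and genomic integration junctions were PCR-amplified and Illumina-sequenced from E. coli BL21(DE3) co-transformed with a T7-driven effector plasmid and pUC57 donor pools of 1549 left-end or 1849 right-end transposon variants. Plating was done with 0.1 mM IPTG at 37°C for 18 h, with two biological output replicates and four reference barcodes.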

[2] = variants of: B1; experiment: relative integration efficiency (T-RL orientation) vs wild-type transposon end (log2 (normalized fold change)); transposon end mutated: left end; higher = more efficient transposition; settings: with VchCAST RNA-guided transposition machinery (E. coli BL21(DE3) host, lacZ target)
In short: as §1

Row | Variant | relative integration efficiency (log2) [1] | relative integration efficiency (log2) [2]
1 | AATGTTGTTGATGCAACCATAAAGTGATATTTAATAATTATTTATAATCAGCAACTTAACCACAAAACAACCATATATTGATATCTCACAAAACAACCATAAGTTGATAAATTTGTGAATCGAGTATTTCAGCAAAACTACTGCAGTAAGAA | -0.344 ± 0.074 | -0.513 ± 0.22
2 | AATGTTGTTGATGCAACCATAAAGTGATATTTAATAATTATTTATAATCAGCAACTTAACCACAAAACAACCATATATTGATATCTCACAAAACAACCATAAGTTGAATTTTTTGTGAATCGAGTATTTCAGCAAAACTACTGCAGTAAGAA | -0.852 ± 0.53 | -0.848 ± 0.47
3 | AATGTTGTTGATGCAACCATAAAGTGATATTTAATAATTATTTATAATCAGCAACTTAACCACAAAACAACCATATATTGATATCTCACAAAACAACCATAAGTGTATATTTTTGTGAATCGAGTATTTCAGCAAAACTACTGCAGTAAGAA | -0.649 ± 0.86 | -1.2 ± 0.72
4 | AATGTTGTTGATGCAACCATAAAGTGATATTTAATAATTATTTATAATCAGCAACTTAACCACAAAACAACCATATATTGATATCTCACAAAACAACCATAAGTTGATATATTTGTGAATCGAGTATTTCAGCAAAACTACTGCAGTAAGAA | -0.0724 ± 0.42 | -0.134 ± 0.076
5 | AATGTTGTTGATGCAACCATAAAGTGATATTTAATAATTATTTATAATCAGCAACTTAACCACAAAACAACCATATATTGATATCTCACAAAACAACCATAAGTTGAATAATTTGTGAATCGAGTATTTCAGCAAAACTACTGCAGTAAGAA | -1.21 ± 0.27 | -0.957 ± 0.51
6 | AATGTTGTTGATGCAACCATAAAGTGATATTTAATAATTATTTATAATCAGCAACTTAACCACAAAACAACCATATATTGATATCTCACAAAACAACCATAAGTTGATATAATTGTGAATCGAGTATTTCAGCAAAACTACTGCAGTAAGAA | -0.101 ± 0.79 | -0.479 ± 0.31
7 | AATGTTGTTGATGCAACCATAAAGTGATATTTAATAATTATTTATAATCAGCAACTTAACCACAAAACAACCATATATTGATATCTCACAAAACAACCATAAGTTGATAGGGGTGTGAATCGAGTATTTCAGCAAAACTACTGCAGTAAGAA | -1.8 ± 1.2 | -1.4 ± 0.63
8 | AATGTTGTTGATGCAACCATAAAGTGATATTTAATAATTATTTATAATCAGCAACTTAACCACAAAACAACCATATATTGATATCTCACAAAACAACCATAAGTTGATAGGTTTGTGAATCGAGTATTTCAGCAAAACTACTGCAGTAAGAA | -1.08 ± 0.37 | -1.16 ± 0.65
9 | AATGTTGTTGATGCAACCATAAAGTGATATTTAATAATTATTTATAATCAGCAACTTAACCACAAAACAACCATATATTGATATCTCACAAAACAACCATAAGTTGATAATTTTGTGAATCGAGTATTTCAGCAAAACTACTGCAGTAAGAA | 0.258 ± 0.5 | -0.016 ± 0.099
10 | AATGTTGTTGATGCAACCATAAAGTGATATTTAATAATTATTTATAATCAGCAACTTAACCACAAAACAACCATATATTGATATCTCACAAAACAACCATAAGTTGATAGTTTTGTGAATCGAGTATTTCAGCAAAACTACTGCAGTAAGAA | -0.561 ± 0.13 | -0.516 ± 0.25
11 | AATGTTGTTGATGCAACCATAAAGTGATATTTAATAATTATTTATAATCAGCAACTTAACCACAAAACAACCATATATTGATATCTCACAAAACAACCATAAGTTGATACTTTTGTGAATCGAGTATTTCAGCAAAACTACTGCAGTAAGAA | -0.691 ± 0.63 | -0.405 ± 0.13
12 | AATGTTGTTGATGCAACCATAAAGTGATATTTAATAATTATTTATAATCAGCAACTTAACCACAAAACAACCATATATTGATATCTCACAAAACAACCATAAGTTGATAAAAATGTGAATCGAGTATTTCAGCAAAACTACTGCAGTAAGAA | -0.328 ± 0.56 | -0.587 ± 0.42
13 | AATGTTGTTGATGCAACCATAAAGTGATATTTAATAATTATTTATAATCAGCAACTTAACCACAAAACAACCATATATTGATATCTCACAAAACAACCATAAGTTGACATTTTTGTGAATCGAGTATTTCAGCAAAACTACTGCAGTAAGAA | -0.173 ± 0.39 | -0.187 ± 0.35
14 | AATGTTGTTGATGCAACCATAAAGTGATATTTAATAATTATTTATAATCAGCAACTTAACCACAAAACAACCATATATTGATATCTCACAAAACAACCATAAGTTGAAATTTTTGTGAATCGAGTATTTCAGCAAAACTACTGCAGTAAGAA | -1.1 ± 0.37 | -0.257 ± 0.48
15 | AATGTTGTTGATGCAACCATAAAGTGATATTTAATAATTATTTATAATCAGCAACTTAACCACAAAACAACCATATATTGATATCTCACAAAACAACCATAAGTTGAGATTTTTGTGAATCGAGTATTTCAGCAAAACTACTGCAGTAAGAA | -0.924 ± 0.023 | -0.684 ± 0.41
16 | AATGTTGTTGATGCAACCATAAAGTGATATTTAATAATTATTTATAATCAGCAACTTAACCACAAAACAACCATATATTGATATCTCACAAAACAACCATAAGTTGAGCTTTTTGTGAATCGAGTATTTCAGCAAAACTACTGCAGTAAGAA | -0.995 ± 1 | -1.16 ± 0.59
17 | AATGTTGTTGATGCAACCATAAAGTGATATTTAATAATTATTTATAATCAGCAACTTAACCACAAAACAACCATATATTGATATCTCACAAAACAACCATAAGTGTCGATTTTTGTGAATCGAGTATTTCAGCAAAACTACTGCAGTAAGAA | -2.48 ± 1.8 | -2 ± 0.7
18 | AATGTTGTTGATGCAACCATAAAGTGATATTTAATAATTATTTATAATCAGCAACTTAACCACAAAACAACCATATATTGATATCTCACAAAACAACCATAAGTTGAGCGGTTTGTGAATCGAGTATTTCAGCAAAACTACTGCAGTAAGAA | -2.71 ± 1.1 | -1.63 ± 0.69
19 | AATGTTGTTGATGCAACCATAAAGTGATATTTAATAATTATTTATAATCAGCAACTTAACCACAAAACAACCATATATTGATATCTCACAAAACAACCATAAGTTGATATAAAAGTGAATCGAGTATTTCAGCAAAACTACTGCAGTAAGAA | -0.629 ± 0.047 | -0.668 ± 0.39
